# In a protein production outcome set (Wang et al. 2014):
# Experiment: label from the status in PepcDB records
# 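Further: failed if final PepcDB status was selected cloned or expressed and not failed if soluble or beyond.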
row,Sequence,protein production
1,MPEWAVILSICGLYLVLVLGLGVWSGRTVSASVDGYVAGDRTLGVIVLYFVLGASVFSSFAFLGAPGWAYSRGAAAFYIIAYGTVGMVPFYFLGPRARQVGEAFGFVTQAEMLAHRYDSRTLSVVLAALSVVAFVPYLTLQMKGAGLLLSTISDGVVPQWLGALAAYGVVLVYVFASGMMAIGWTNTVQGLFMMAVAWFLGLYLPETLHGGIQPMFEAIAASDKAAMLDVPGLAADGSPWSWAGYSSAVIVSAVGFSMWPHLFMRAFTAKSDRTLKLTVVLYPTFQLFLVPILLIGFAGVLAFPGVAPPDTIVPHLLTQIELSPVLVGLVCAGALAASMSSGDAILHAAASIGLRDGIKPLLAAPMTDTRQRQWIRGLVVATSATAYYFAVFSEVGIVALLLGAYGGVAQIFPLVFAAFYWPRATGAGALAGLLAGIGVNTLFLVAPHLRPFPLHEGVYGLAANIAVFLTVSLLTPPHDRDRLRAYTHSDRLAADETVAS,failed
2,AKRVVFVTVGTTSFDALVKAVVSQNVKDELQKRGFTHLLIQMGRGIFFPTKCDGADGSLVVDYFTFSSSIADYIRSASLVISHAGSGSIFETLKLGKPLIVVVNEDLMDNHQCELAEALEERKHLYYTRPHSLHQTLTKMELGSLVQYTPGDGTPVARIIDRFLG,failed
3,MEANSGGGGGAEGGRAVTGGGGGGGGSDVELVSKTLQVEHKLFYFDLKENPRGRYLKISEKTSATRSTIIVPSSGISWFLDLFNYYVNSEEHELFSKELQLDSKVFYFDIGENRRGRFLKVSEASVSRNRSTIIVPAGSSPDEGWAAFRNILAEIHEASGLFVMPNQKPSDGQEHLVDDVGAGFIPGHGSQQPSSSEHNVDRTIDSPGSDRSSIILPLSGLKQFHEVIGHFVEITKDKIEVLILLEDGNFQSSNHLNLATSSRLPDRGVQ,failed
4,MEMKKSGRSLKMIFTQYFATVSLAFIALLCLIWAIFVISLNTKLIIPANQTEQELHRLEDKIEKADTFQAKRLPKDTAYLLMTKDGKIKESNMSKNLQQQALASYSGNAVSPNDYGYFMVFKRQKEVCIVNYRLEAHYSVAWMNKYLPNVSLLGLILTGLGVLLVFTLVTILFARRLQRQLSPIIAATQKIAKQNLDFTVQSSDIKEFNQVLNSLDTMRAALRDSLMHSWQVEQEKQNQIAALTHDIKTPLTVIKGNTELLKQTELSETQEAFVGYSLKNIGQVETYLQQLSYLAKNSQLQDFHPEKIKVAAFLEELSQNSQALAATKDIKIQFVNNLSDAQLTTYWDKGLLARALMNIISNAVEHSPQGSQLQLVCHLENELFQLTCLDSGQGFSREALDKAKMQFFQDDTSRHDRKHSGLGLTIADNIIRLHGGSLSLSNDAKTASGRVDVVLPLAKM,failed
5,MNDFSCPAIAFPSFLNPVIVHLGPIALYWYGLGYVVGILFVWWYAQKLLKKQSLWYANHPPMDKEKIGDFVVWSAISIVVGGRLGQVLVWDPIYYFSHPTAIITIWNGGMSFHGGLIGITIAMIWFARKNNIKIRAMFDIIAIGAPIGIGIVRICNFINQELWGNVTTHPWAVCFPLDPYYLPRHPSQLYEALMEGFLLFVILFILTFAFKALKRPGTVSGIFIIGYAIARSISEIYRAPQEDPEWFSTLFHSTGFTYGMALSLPMLFLGFYLLFQAFKDESTKNGHTQTKN,failed
6,MNMKLQVTVLKGDVIENGYEVVDAVEGNGNNDDSGDDGGEDEEGSADDAEGKETKKGPVSDPDLNGEAGDNDDEPEGDDGNDDEDDDNHENDDEDEEEDEDENDDGGEEDDDEDAEVEEEEEEEDEDDEEALQPPKKRKK,failed
7,MSTDIDCIVIGAGVVGLAIARALAAGGHEVLVAEAAEGIGTGTSSRNSEVIHAGIYYPADSLKARLCVRGKHLLYEYCAARGVPHQRLGKLIVATSDAEASQLDSIARRAGANGVDDLQHIDGAAARRLEPALHCTAALVSPSTGIVDSHALMLAYQGDAESDGAQLVFHTPLIAGRVRPEGGFELDFGGAEPMTLSCRVLINAAGLHAPGLARRIEGIPRDSIPPEYLCKGSYFTLAGRAPFSRLIYPVPQHAGLGVHLTLDLGGQAKFGPDTEWIATEDYTLDPRRADVFYAAVRSYWPALPDGALAPGYTGIRPKISGPHEPAADFAIAGPASHGVAGLVNLYGIESPGLTASLAIAEETLARLAALEHHHHHH,not failed
8,MHFSKEHINALETRTRAHFINSLSGFKSANLIGTQDRQGNTNLSIVSSVIHLGANPPLMGMIIRPHSVPRHTFENIMQTGLYTINHVNQSIYEQAHQTSARYDKDESEFEATGLTPEYLSDFCAPFVKESRLKYSVKLVEHQHLAINGTEFVIGEIVDVYVDDNAVQTDGFIDLQAIDTVAISGLDCYYTGDKLARLPYAKK,not failed
9,MEKDDATASFSPSFSTYSGDRLVEIAERVCYKEKSDAEFEFSTAATSSSGDGGLVFPVFNKNLISGDVSPEKVIPLKDLFLRERNDQQPPQQTYSSSSDEEEEDDEFDSIPSEIYCPWTPARSTADMSPSGGCRKSKSTGSSSTSTWSTKRWRLRDFLKRSKSDGKQSLKFLNPTNRDDDDESSKSKKKVSVSVTVSAHEKFYLRNKAIKEEDKRKSYLPYKQDLVGLFSNIHRYGKTFPPF,failed
10,MNPCGIQRYQTQMYTQVSYDFRLSWSSGKRSASGFEAVGGAKMAEEKLGMKTQVPASIESQKPRPKKAPEFPIVEKLNWLIHLYYIRKDYEACKAVIKEQLQETQGLCEYAIYVQALIFRLEGNIQESLELFQTCAVLSPQCADNLKQVARSLFLLGKHKAATEVYNEAAKLNQKDWEICHNLGVCYTYLKQFSKAQDQLHSALQLNKHDLTYIMLGKIHLLQGDLDKAIEIYKKAVEFSPENTELLTTLGLLYLQLGVYQKAFEHLGNALTYDPANYKAILAAGSMMQTHGDFDVALTKYRVVACAIPESPPLWNNIGMCFFGKKKYVAAISCLKRANYLAPFDWKILYNLGLVHLTMQQYASAFHFLSAAINFQPKMGELYMLLAVALTNLEDIENAKRAYVEAVRLDKCNPLVNLNYAVLLYNQGEKKGALAQYQEMEKKVHFLKDNNPLEFDSEMVEMAQKLGAALQVGEALVWTKPVKDPKSKHRTNSGSKSATLQQPLGSFQALGQAMSSAAAHRKIPSGAVGAQLTKPPSLPLEPEPEPTVEASPTEASEQNKEK,failed
11,MCNGKVVNKGDDCQSLTFRRRSGWAMIDRSAVMEKTMDSRIQDVLDIYHAMIETEHNSPRELPPGGRDGGQDQRLRAVGQATGQFINILAKSLKSPTILELGTSFGYSGIWLAEAARASGGRLITMEMHDYKSAYARDMAVKAGLAEHVEFKVGDAVQMIGALSSGIDFVLVDLWKDLYVPCLEAFYPKLNPGAIIVADNMLRPGGDDLKRYSDAVRAKPWISSVLLPVGSGLEVSRFD,failed
12,MITDIPWNRGEWTNQPAAVVEQAGDLLVTAAESSDAWRVTSYGFIHDTEHALLAPLPQDSAMEVEFTAAFSQQFDQAGIFVRISAEHWIKAGVEFADGAAQVGAVVTNRFSDWSLAPVPDWNGERVRMRVSRSGDALTIRAASGSNELRLVRVVPLAPDLVTVAGPFTCAPTRAGLTVPFHSWRAKPADSQLH,failed
13,MANVVILGGNGYLGRNITKVWLEIDPKLEFYIVSRSGQNKLVDKRIHNIKVDVTNEKDVAKKRPDTFDYIIDCIGVPEKDPEKFKQINDLPAETMLALARKQKDPVMGFISGRLGPKTFIDGKAQILKELQDSSIKVASVSPNVVYGNGRKDSMTKMVPFLKFMDLFSAKMNPDDVVKDLINQMIKLHNS,failed
14,MLFFNVASLKYKHHESIQMIIDRIDHLVLTVSDISTTIRFYEEVLGFSAVTFKQNRKALIFGAQKINLHQQEMEFEPKASRPTPGSADLCFITSTPINDVVSEILQAGISIVEGPVERTGATGEIMSIYIRDPDGNLIEISQYVLEHHHHHH,not failed
15,MQRIMVIGGPGSGKSTLGRKLGARLGLPVVHMDPIYWLGDWVERDKAEAMRMAKEVADGSQWVFEGNHFASMAYRAERADLIVFLDMPRVLRMWRILWRSLRYYGRTRPDMGPNCPERFNRAFLKFCWTYDREGRLRALGFVDDWRDRRRVRILTSRRQVAAFLVEIDRQLEHHHHHH,failed
16,MEQFSFIACMPDIPGALHRAAEIITRYEGNINRIQYDRRIDLHTVFFEVTALPQAYEKIREELEKIGYLQTSLQPVAFVKFHVYLPNCPGALFDLLNYITSSKSSITFLDFDDRGQHPERLVVGLHIEDPNMIDALLNQLKSRYRLDILEYDTTGEKLDDTVFYLRLAQKLRSFIGSAEDDFLMRFLQDINHITQELSNLQKDPIEVFENILKVGDYLNRTSGDNFYADVQRVRIKDDIELFCFQPPCGGNIYLFDTSSERVMIDTGYGIYFQDIVNMLQYYGLGDLSRLKRIYITHADADHCGAAGCFPAPSYLNRETFLITRETSRAYGSSNQDCILEEVYTKIINLFSRFTPPSNTVLFPEVSLSDKIIEKRGVFPIIARFRIGDLKFEVLEGMGGHMHGEVFYFCPEEGLLFPEDAVINFKSLSPDRTAYNVLADYLMTSVNVDSKLAREERQSLLSLISEIDEQLARKNKKCLICCGHGSMSLLDNGKLIEYKGSERYVAGQKCISQENL,failed
17,MQSRSKSDMKPIRKEILNPGNAYIELTPGTRRLTPHDIGLFQVKFHFQTRRAGDSRIIDDSRKMEKPMELVLGKKFKLEVWELIVQQMSLNEVAKFTVHKSLCAQYPFISKTLRDIGKKPEERRHCCGMTLQNEGIGYTDLDELLQNPSDLEFIIELFSIELPEQYEKERWQMSDDEKMLATSTLRERGNNFYKASRFTEAETCYREAVGIVEQLMLKEKPHDEEWQELAAIKTPLLLNYAQCRLIAGDFYAVIEHCNEVLTLDPRNVKALFRRAKAHAGAWNPAQARRDFLDALALDASLKSTVSKELKSIEDQQQARNVQDRIHMQKLF,failed
18,MKISVITINYNNGEQLEATIQSVVSNVTVLRELLGEKAEYIVIDGGSVDCSVSVLQKYSEYISYWISEKDKGIYHAMNKGISVAQGEYCFFLNSGDTFYEDDTLKKALLFLKEDFVCGNAVLKYAGGINEWSAPEIVNTLFFMQRFSVCHQSLFIRTELLKSHPYNETLMIVADYEQMFYEIAVNHRSYKKIDLTICYYGCDGVSSDHEKADAEKRSVINEFRYLGYIEPDELWNVVSKLKIGTRKYRLLLSLAKCLTSSPKYWVRLEHHHHHH,not failed
19,MSPTLSILIPVYKRDCRRLLEELYKQAEELSVGYEIILGDDCSGEPYTSQYIAYEQEGLCRLVSAEENMGAGRLRNRLAEEAQGEQLLILDSDTLPASPDFIERYLRHASGTTVVCGGFVYPPKSTNPLRQRYGAEVESRSAEERARKPHSGFISMAFMIPRKQMLATGFPPNMGMGYEDILFGERLRQAGIPILHIDNPVEHYHCDTAEGFLATTRSYLDNLYCHREELAELVSLLRAYNLLKRLHLEHHHHHH,failed
20,AIATYPTNLEIIGGQGGSSFSFTGENNGASLEKIWVWVGGWQIKAVRAWLSDGRDETFGVPSGSHQEYVFTPGECFTSLSLWGNGAGTRLGAIKFKTNKGGEFFAHMTSWGLKTEYPMDVGSGYCLGIVGRGGSDIDCMGFMFLNAVQSTVLTNVNYPTINQLIPKVATEEIKSVSFENKTSVKQEQKVETSKKVIKTSSWSMTKSFSSTFSVEVSAGIPEIAEVSTGFSISFGVESTHSLEQTDEKNETLTTTVEVPPKKKVDVHITIGRASFDLPYTGTVKITCKNGSVLQYETKGQYKGVAYTDIKVNTVEKDL,not failed
21,MAAIPALDPEAEPSMDVILVGSSELSSSVSPGTGRDLIAYEVKANQRNIEDICICCGSLQVHTQHPLFEGGICAPCKDKFLDALFLYDDDGYQSYCSICCSGETLLICGNPDCTRCYCFECVDSLVGPGTSGKVHAMSNWVCYLCLPSSRSGLLQRRRKWRSQLKAFYDRESENPLEMFETVPVWRRQPVRVLSLFEDIKKELTSLGFLESGSDPGQLKHVVDVTDTVRKDVEEWGPFDLVYGATPPLGHTCDRPPSWYLFQFHRLLQYARPKPGSPRPFFWMFVDNLVLNKEDLDVASRFLEMEPVTIPDVHGGSLQNAVRVWSNIPAIRSSRHWALVSEEELSLLAQNKQSSKLAAKWPTKLVKNCFLPLREYFKYFSTELTSSL,failed
